From article PMC5204125, “Primase is required for helicase activity and helicase alters the specificity of primase in the enteropathogen Clostridium difficile” (Open Biology, 2016)
Each block holds one compound with its values, some of them ahead of it.

Experiments:
[1] = molecular target: C. difficile replicative helicase CD3657, purified non-tagged (Clostridium difficile); assay: SEC; analytical gel filtration of purified CD3657 alone, at 10 µM and above (monomer)
[2] = molecular target: C. difficile replicative helicase CD3657, purified non-tagged (Clostridium difficile); assay: SEC; analytical gel filtration of CD3657 and CD3654 at high concentrations (approx. 10 µM); Figure S3
[3] = molecular target: C. difficile replicative helicase CD3657, purified non-tagged (Clostridium difficile); assay: SEC; analytical gel filtration, Superdex 200 10/300 GL, CD3657 and CD3654 equimolar 2.21 µM (monomer), without ATP; fractions on SDS-PAGE
[4] = molecular target: C. difficile putative helicase loader CD3654, purified non-tagged (Clostridium difficile); assay: SEC; analytical gel filtration, Superdex 200 10/300 GL, CD3657 and CD3654 equimolar 2.21 µM (monomer), with 1 mM ATP; fractions on SDS-PAGE
[5] = molecular target: C. difficile replicative helicase CD3657, purified non-tagged (Clostridium difficile); assay: as above
[6] = molecular target: T1, CD3657 helicase with CD3654 helicase loader (Clostridioides difficile, UniProt Q181Q5+Q181Q8); assay: analytical gel filtration (Superdex […]) with SDS-PAGE; settings: 1 mM ATP; 2.21 uM each protein (monomer); ATP site inferred by the authors to be on CD3657 (Walker A), ATP binding itself not measured
T1 construct: gene dnaC; full-length open reading frames, non-tagged, expressed in E. coli BL21(DE3) from pET vectors; CD3657 monomer 49 kDa, CD3654 38 kDa; most probably 6:6 dodecamer with ATP (522 kDa); with Helicase loader ATPase (DnaI-like AAA+ protein)
T1 sequence (Q181Q8 1-442): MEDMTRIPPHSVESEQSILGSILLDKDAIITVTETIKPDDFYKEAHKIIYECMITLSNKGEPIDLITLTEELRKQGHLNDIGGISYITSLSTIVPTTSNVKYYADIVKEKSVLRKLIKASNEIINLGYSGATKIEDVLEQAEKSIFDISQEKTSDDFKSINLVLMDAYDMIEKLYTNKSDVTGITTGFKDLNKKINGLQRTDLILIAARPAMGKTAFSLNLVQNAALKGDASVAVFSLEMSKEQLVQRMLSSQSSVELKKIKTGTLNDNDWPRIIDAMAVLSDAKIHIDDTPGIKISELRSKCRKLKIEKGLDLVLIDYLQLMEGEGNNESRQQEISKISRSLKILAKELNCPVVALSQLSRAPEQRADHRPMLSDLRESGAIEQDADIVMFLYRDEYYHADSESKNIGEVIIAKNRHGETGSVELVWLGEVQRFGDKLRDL
T1 sequence (Q181Q5 1-330): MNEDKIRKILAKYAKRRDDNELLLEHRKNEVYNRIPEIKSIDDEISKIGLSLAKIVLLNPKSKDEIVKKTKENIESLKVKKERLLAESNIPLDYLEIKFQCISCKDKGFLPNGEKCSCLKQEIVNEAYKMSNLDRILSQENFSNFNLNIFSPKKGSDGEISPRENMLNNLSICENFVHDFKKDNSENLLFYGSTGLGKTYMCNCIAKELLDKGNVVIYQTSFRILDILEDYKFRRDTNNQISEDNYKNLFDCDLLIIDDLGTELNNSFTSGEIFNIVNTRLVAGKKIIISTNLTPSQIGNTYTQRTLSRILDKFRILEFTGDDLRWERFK

[7] = molecular target: CD3654 putative helicase loader, bacterial two-hybrid fusion (Clostridium difficile); assay: two-hybrid; bacterial two-hybrid: Zif fusion and RNA polymerase ω subunit fusion, Zif-dependent lacZ reporter in E. coli KDZif1ΔZ, β-galactosidase activity, n = 3
[8] = molecular target: CD3657 helicase, bacterial two-hybrid fusion (Clostridium difficile); assay: as above
[9] = molecular target: C. difficile replicative helicase CD3657, purified non-tagged (Clostridium difficile)
[10] = molecular target: C. difficile replicative helicase CD3657, purified non-tagged (Clostridium difficile); remark: listed apart in the source

- stoichiometry N [1]: 6
- stoichiometry N [2]: 6
- stoichiometry N [3]: 6
- stoichiometry N (CD3657 per CD3654 (6:6)) [4]: 1
- stoichiometry N [5]: 6
Compound: C. difficile replicative helicase CD3657, purified non-tagged (enzyme)

Compound: Nc1ncnc2c1ncn2[C@@H]1O[C@H](COP(=O)(O)OP(=O)(O)OP(=O)(O)O)[C@@H](O)[C@H]1O [ATP]
- analytical gel filtration (Superdex 200) with SDS-PAGE [6]: CD3657 helicase and the loader CD3654 can form a complex in an ATP-dependent manner

- fold β-galactosidase activity over the reporter strains with the individual plasmids [7]: 5 fold
- fold β-galactosidase activity over the reporter strains with the individual plasmids [8]: 3 fold
Compound: CD3657 helicase, bacterial two-hybrid fusion (enzyme)

- helicase assay: displacement of a radiolabelled oligonucleotide annealed to ssM13 by CD3657 with equimolar CD1454 against CD3657 alone, time course to 35 min [9]: 3.5 fold
- RNA primer production by CD1454 on the 5′-d(CTA) 23-mer ssDNA template with against without CD3657, at [CD3657]6:[CD1454]3 [10]: 45.9 nmol
Compound: C. difficile primase CD1454, purified without an affinity tag (enzyme)
